Assay: soluble on expression in E. coli; label from the status in PepcDB or PDB records

Sequence	soluble on expression in E. coli
MGSDKIHHHHHHMTWGCHHLIKKVDASFSLGPISFTLEPGTVTALVGDNGSGKSTFFRLWMDLIKANQGTWERKEGWKEDTAYVPQQLIGIEAFTLEELAYLYEGMYVKWDQKTFERLVESFSLPMKKPLHSLSVGMQKKALFSMAIARKPNLFLLDEPFAGVDMDGQEQMKDELIRYLTGHEQATVLFATHSAQEVKELADYLLVLHQGQMLGFYEKDRLLSSWGRFWLEGNASAIKNEENVVSMKIAGTRIEIITSDALRFEEQIAAAALEKVEAQPLELHEIVRLLKKRNVSVS	not soluble
MGSDKIHHHHHHMTYKVLHVGAGGFGERWCDTFLPSNNSDGTIEVVGLVDIDARALEIGRKHLGLKAKQCFTSAAQAFKAVDADFCTIVIPPALHEGIVDLALERGMHILSEKPIAATMEASVRIADKVRVAGRKMAVTMSHRFDQDKSTLRALVSDEALGRVNTVSCRFAGDYRAYDSWGRFRHEMIHPMLIEGAVHHLDIMADLAGAPCTSIYARSWKPEWAEYKGETDVMVLMDFANGAHGVYEGSSAQATGLNDWTFEYVRVEAASGTAILDHREVEVFHRDPKRIYQKNRHGKGQQVSLLGGKKWKNSLLIEQFCHWLDGGPPMATNVEDNLQSVALIFSAIESARLGQPVKVQEFLQSFRKSASIETQ	not soluble
MGSDKIHHHHHHMVDTHAHLHFHQFDDDRNAVISSFEENNIEFVVNVGVNLEDSKKSLDLSKTSDRIFCSVGVHPHDAKEVPEDFIEHLEKFAKDEKVVAIGETGLDFFRNISPAEVQKRVFVEQIELAGKLNLPLVVHIRDAYSEAYEILRTESLPEKRGVIHAFSSDYEWAKKFIDLGFLLGIGGPVTYPKNEALREVVKRVGLEYIVLETDCPFLPPQPFRGKRNEPKYLKYVVETISQVLGVPEAKVDEATTENARRIFLEVKE	soluble
MGSDKIHHHHHHMVIGQKVLLARIPKMGDNYSTYLLDIEGTVCPISFVKETLFPYFTNKVPQLVQQDTRDSPVSNILSQFHIDNKEQLQAHILELVAKDVKDPILKQLQGYVWAHGYESGQIKAPVYADAIDFIKRKKRVFIYSSGSVKAQKLLFGYVQDPNAPAHDSLDLNSYIDGYFDINTSGKKTETQSYANILRDIGAKASEVLFLSDNPLELDAAAGVGIATGLASRPGNAPVPDGQKYQVYKNFETL	soluble
MGSDKIHHHHHHMVILVNPSILESSFIPDRLVARDGEIERIMETVIKPTKNGITTNLILYGDSGTGKTVTMRYLAREIRDPQVVYVNAIAYRYVKNVLIDFLSKFGIIVPERSSYASLFTRIEGLLRNQGKNVILVIDEAANILKGDYDGLYYLFRSKDSFDVNISTIFVVMEDPAILFDAKIRKSYGIFSEIKFRRYTKGEIYQIVMNRAVQSLTGEGYDEDVLDYIAEVSAEYGSARVGIDILAKAAHIAEYRRSPKISFDDVRAARSMISPFVTESKLASMDYEDLMVLLSICRCLSASRFTDVDCISRNLSVISEQYGKKDINLYDRIKRLENNGIISSSIEGQGRGEGVKKVISIYDIPVSVLTEKIENLLSA	not soluble
MGSDKIHHHHHHMVKTARRRGDDAVRGPGGVLVLGAASWNRMIHVETLPQGASATIFDARETQGAGSTGVGKAMGLAALGYQPTLHCALGRDDHGAQVIAACAGRGISLIVDEHDAATPHHLNIMDQLGGRYSLFLSNGAPDPPINEPRIAEQIAAADTIFLSLCASSKKILHLLEGARAEILLDLHDYDGANPWYEDFIACADVIQLSDVAVADPGAVARRLLSGRAHQVVVTKAGKGAEIVTADTSIDVPPCPADMVDSNGAGDAFSVALWHAQRTGQSGLDAGGFAAAAAACAIESADLFPVNVSAADIAGRVRAHPQDHSTGTASR	not soluble
MGSDKIHHHHHHMVMMSKQLTAQAPVDPIVLGKMGSSYGIRGWLRVFSSTEDAESIFDYQPWFIQKAGQWQQVQLESWKHHNQDMIIKLKGVDDRDAANLLTNCEIVVDSSQLPQLEEGDYYWKDLMGCQVVTTEGYDLGKVVDMMETGSNDVLVIKANLKDAFGIKERLVPFLDGQVIKKVDLTTRSIEVDWDPGF	not soluble
MGSDKIHHHHHHMVMTVGDSRVGKSTVIKLLLEMYQIQGKRLKVYDHDNRDRFLAYKDLVCIEKIDFFNTRTDRIFNDLIVDSLDIILVDMPGQYLDKICQYIIQSELLGALAEYGWSLTFVQPISHRTDCIDYLSQIVQTATNNANYVVVKNYHFAPEFREYEQTMAKNLLMIGGTEIELTALHRNHYQAMEKAGIPYSQVCQDISMILFLRSYIYQWIKKFHDSVMDNDLAVKYLGLD	not soluble
MGSDKIHHHHHHMVNNMTDLTAQDAAWSTRDHLDDPVIGELRNRFGPDAFTVQATRTGIPVVWVKREQLLEVGDFLKKLPKPYVMLFDLHGMDERLRTHRDGLPAADFSVFYHLISIERNRDIMLKVALSENDLRVPTFTKLFPNANWYERETWEMFGIDIEGHPHLTRIMMPQTWEGHPLRKDYPARATEFDPFELTKAKQDLEMEALTFKPEDWGMKRGTDNEDFMFLNLGPNHPSAHGAFRIILQLDGEEIVDCVPDIGYHHRGAEKMGERQSWHSYIPYTDRIEYLGGCVNEMPYVLAVEKLAGITVPDRVNVIRVMLSELFRINSHLLYISTFIQDVGAMTPVFFAFTDRQKIYDLVEAITGFRMHPAWFRIGGVAHDLPRGWDRLLREFLEWMPKRLDSYEKAALRNTILKGRSQGVAAYGAKEALEWGTTGAGLRATGIDFDVRKWRPYSGYENFDFEVPVGGGVSDCYTRVMLKVEELRQSLRILQQCLDNMPEGPFKADHPLTTPPPKERTLQHIETLITHFLQVSWGPVMPAQESFQMVEATKGINSYYLTSDGSTMSYRTRVRTPSFAHLQQIPSAIRGSLVSDLIVYLGSIDFVMSDVDR	not soluble
MGSDKIHHHHHHMVQNTFSDFDVSGFWDDSAYSIEEYVEETPTDALIDSIEQELGYKLPASYIELMKQHNGGTPVNCCFPVTEETSGTEYHVEISGIMGIGRSKTYSLGGSFGSRFMIDEWGYPDTGIYVCTCPSAGHEMILLDYSICGPKGEPQVFYVDQEREYQKTFLAKDFETFIRGLVHADVYDTSAQDLISTLETFRTGNFSEVLQAYIKKDLSVNFDRVLRNLFTELTTEKGYFALHADELSYLSYDIQFYLLSINRKIKSKEDFVKHYLPMVAMSDAGITTGGYANFFEDWFDEKIKSKEITKGLLSGFLFTEIYKQKLFERIKQYDK	not soluble
MGSDKIHHHHHHMVRGRKIMSLVTDLPAIFDQFSEARQTGFLTVMDLKERGIPLVGTYCTFMPQEIPMAAGAVVVSLCSTSDETIEEAEKDLPRNLCPLIKSSYGFGKTDKCPYFYFSDLVVGETTCDGKKKMYEYMAEFKPVHVMQLPNSVKDDASRALWKAEMLRLQKTVEERFGHEISEDALRDAIALKNRERRALANFYHLGQLNPPALSGSDILKVVYGATFRFDKEALINELDAMTARVRQQWEEGQRLDPRPRILITGCPIGGAAEKVVRAIEENGGWVVGYENCTGAKATEQCVAETGDVYDALADKYLAIGCSCVSPNDQRLKMLSQMVEEYQVDGVVDVILQACHTYAVESLAIKRHVRQQHNIPYIAIETDYSTSDVGQLSTRVAAFIEML	not soluble
MGSDKIHHHHHHMVSIIDFYVLQKRPSNGGGFDIAIGNPPYISAPTQIASPELNEQRQRIVASKKYKSLNEKWDLYVPFMELGMQLLCPNGVFSMIVPYPLTNQKYGKKLRKMIVEEYRLLEIADLNGTKIFENATVSNCIPFIQNSQPEGELRITQIFEDKTIREVLSKSPKALKLDKKNYVWNLTEEERTGNRFANMNVLGDFCYISVGMVVNANEKDAQGAFKKEDLISDTYDAIHCRKYIEAKDIDKFQVKRVRYLEWNTERCPEKLRRPTFRELYDRPKLIMNCLGTINVTIDAEEHFLHNHSIYCAILWKDLKDVSNKSISSSVKKFSKHNREAMESLSEKVDLYYLLGILNSSMADQLLTDQRGGDYHIYPEHIRNLPIPVPQREIQNAIGEIAKQILLIRETNTDYSELEEQLNNLVEALYQ	not soluble
MGSDKIHHHHHHMVTNVRIGAMQAYMVAEPWNTRAITGNENIGFTFAQGKEVWLGHPDRLLGVMESFIDKYPKTYRSLVKAMIEACQYCSKAENRQEVAELLTERSFTGARPKKKGAPIAKFTSPGILGNYNYGGFDGKDRTIKAADTTIFFDIPDNLPKQPGEHSTFLWRSRSIWLMTQAARWGQIKEFPKNADKLAQQGWRTDLYREIASEMGIQCPKDDYKVEPPEVFIDKKGFDPSDPVGYLNSFAIRANAPTNFFMS	not soluble
MGSDKIHHHHHHMWAYESVFYQIYPLGFCGAPFENDGVLEHRILKVNDWIPHIKKLGADAIYFSPVFESDTHGYNTRDYTKIDTRLGTNEDFAQVCDNLHKDGIKVVLDGVFNHVGRGFWAFQDVLKNRESSPYVNWFGRIAFDGNSNYNDGLWYEGWEGNYDLVKLNLRNEDVIQHIFSAIKGWVDEFDIDGLRLDVAYCLDHDFLRRLREFCDSLKPDFFLVGETLHGDYNQIMNDAMLHSVTNYECYKGLYSSFNSMNMFEINHSLLRQFGPEQWTLYKGKHLLSFVDNHDVTRVASILTNEKHLPLIYALAFGMPGIPCVYYGSEWGEKAKKEDGDPALRACFEAPQCNELTEWISKLAEAKKQSKALCYGNFYSVVLTNGQCVFGRECDGEKVFVCINAADQPFFAGFDMGKGDATDLITGEQVTLNGGLELPPYSAYFLR	not soluble
MGSDKIHHHHHHMWFKNLKIYRLSAPWALNGDQLEECLARFAYQGGNNLEMQSLGWISPRENGLLAHTLNGQILLTLRAEKKLLPTTVVNQVAKARAQEIEEQQGYKPGRKQMKEIKERVTDELLPKAFSIYRDTRVWIDTVNHWLVIDAAASAKADEVIGLLVKTIDPLPLDNLYVEQSPAAAMTGWLAADEAPANFSIDQDTELRASGESRAAIRYVKHSIDVDDVRRHIQSGKQCTRLAMTWADRVSFVLTESLDVKRVAPLDVLKENPDAATQNDDEKFDSDMTLMTGEVAKLLAELVDSLGGEKRV	not soluble
MGSDKIHHHHHHMYCNMLISLLTFISVEILYNKSNKKYGGNDMSIVQLYDITQIKSFIEHSNYESASYLYKLPQQYNEIDVLITDAIESPGVFSIKENDSIKAIILSFAYDKNKFKVIGPFVADNYVLSVDTFETLFKAMTSNQPDDAVFNFSFEEGIQQYKPLMKVIQASYNFTDYYIEARTRLEEDMHQPNIIPYHKGFYRAFSKLHTTTFKYQAQSPQDIIDSLDDHHHLFLFVSEGLLKGYLYLEIDSQQSIAEIKYFSSHVDYRLKGIAFELLAYALQYAFDNFDIRKVYFKIRNKNNKLIERFNGLGFHINYEYIKFKFESRNVKDQTIPE	not soluble
MGSDKIHHHHHHMYDAVIIGGGPGGYVCAIKLAQLGKKVALVEKDALGGTCTNRGCIPTKAMLTVSHLMDEMKEKASKYGLKVSGVEYDVAAIMKHVQKSVMMSRKGIEYLLKKNGVEVFKGTAVVENKNTVVVQETGEKLEAKNLVLAHGSVPSVFSPFDIDGVWTSDDVFNLKEFPKSLVIVGGGVIGVEFATFFGSFGVDVTIVEIAEHILPYEDSDVAEEVKKALKRKGVKILEKTKISSLSKVDDGFEVALENGETLKAEKVLLAAGRKPNIPEDVKALGVKIEKGVVTDSRMRTNVENVYAIGDIRSGIMLAHVAMYEGIVAAKNIAGEEEEMDYSAVPSIIFSSPEVASVGVREKDVNPEEVVISKFPVSANGRARTMLENIGFAKVIADKKDGTVLGMSIVSPSATDMIMEGVIAVKFRMKAEDLEKAIHPHPTLTETILGALEGVSGKPIHL	not soluble
